In publication PMC9733695:

Target: human FcRn (neonatal Fc receptor), coupled to a Sepharose affinity column (human) (UniProt P55899)
Assay: FcRn affinity chromatography

Sequence of UniProt P55899 (P55899 whole entry, looked up, tested part not stated): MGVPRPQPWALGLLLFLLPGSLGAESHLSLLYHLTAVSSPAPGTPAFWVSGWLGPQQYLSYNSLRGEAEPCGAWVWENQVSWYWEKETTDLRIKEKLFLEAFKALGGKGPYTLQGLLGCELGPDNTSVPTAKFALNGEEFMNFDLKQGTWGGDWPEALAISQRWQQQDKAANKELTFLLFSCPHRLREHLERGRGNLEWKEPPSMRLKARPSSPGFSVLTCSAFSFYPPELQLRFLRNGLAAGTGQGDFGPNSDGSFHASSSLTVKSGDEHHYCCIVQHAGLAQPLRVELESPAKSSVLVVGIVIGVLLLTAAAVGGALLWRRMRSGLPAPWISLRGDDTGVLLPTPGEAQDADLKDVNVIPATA

Substance	retention time on the FcRn affinity column [min]
Antibody 4 TM (human IgG1 Fc with the TM modification)	15.9
Antibody 4 WT (wild-type human IgG1 Fc)	16.3
